From patent publication US10059950B2, “Compositions comprising an internalizing nucleic acid molecule, and their methods of use” (B3 BIO, INC., priority 2012, dated 2018)
In the oligonucleotide strings, read from the 5' end, every base follows the letter of its sugar. An asterisk marks phosphorothioate; unmarked linkages are phosphodiester. Other units and linkages are bracketed, terminal groups are in braces. A string of capitals states the bases alone. r = 2'-OH (RNA); f = 2'-fluoro

B1: GGGAGGACGAUGCGGUACUUUCGGGCUUUCGGCAACAUCAGCCCCUCAGGACGCAAUUUCUCCUACUGGGAUAGGUGGAUUAU (nucleic acid)
chain: rGrGrGrArGrGrAfCrGrAfUrGfCrGrGfUrAfCfUfUfUfCrGrGrGfCfUfUfUfCrGrGfCrArAfCrAfUfCrArGfCfCfCfCfUfCrArGrGrAfCrGfCrArAfUfUfUfCfUfCfCfUrAfCfUrGrGrGrAfUrArGrGfUrGrGrAfUfUrAfU
modifications: Alexa 647 label via hybridized DNA oligo, further chemistry not fully specified
notes: tested hybridized to Alexa647 DNA oligo
B2: GGGAGGACGAUGCGGUACUUUCGGGCUUUCGGCAACAUCAGCCCCUCAGGACGCAAUUUCUC (nucleic acid)
chain: rGrGrGrArGrGrAfCrGrAfUrGfCrGrGfUrAfCfUfUfUfCrGrGrGfCfUfUfUfCrGrGfCrArAfCrAfUfCrArGfCfCfCfCfUfCrArGrGrAfCrGfCrArAfUfUfUfCfUfC
modifications: Alexa 647 label attached, position not given here, further chemistry not fully specified
notes: truncation of iNA E3, 62 bases
B3: D11: RNA iNA clone from Round 14 toggle selection, variable region SEQ ID NO:20 UCCCCGGAUUUCGGAUACGAUCCCUCAUCCCUUGACCGCA, 2′ fluoro pyrimidines (nucleic acid)
chain: rGrGrGrArGrGrAfCrGrAfUrGfCrGrGfUfCfCfCfCrGrGrAfUfUfUfCrGrGrAfUrAfCrGrAfUfCfCfCfUfCrAfUfCfCfCfUfUrGrAfCfCrGfCrArAfUfUfUfCfUfCfCfUrAfCfUrGrGrGrAfUrArGrGfUrGrGrAfUfUrAfU
modifications: Alexa 647 attached for internalization assay, further chemistry not fully specified

Columns and labels:
[1] = test system: human prostate cancer cell line PC-3; test: Flow cytometric-based screening assay for internalization in PC-3 cells; type: cell-based; conditions: for Fold Increase (mean fluorescence of clone / unstained cells) / Mean (mean fluorescence): Table 5, 200 nM Alexa 647-modified clone, 2 hours @ 37° C., PC-3; for Mean (mean fluorescence): flow cytometry; for Fold increase: Table 9, PC3, malignant
Protocol: In illustrating a screening process for internalization, from clones selected for further analysis from the selection process, a flow cytometric-based assay for binding and/or internalization was utilized. Typically, the assay was performed by incubating 200 nM of each clone with 5×10^5 target cells in 100 ul PBS containing 0.5% bovine serum albumin (BSA) in a 13 mm tube for 2 hours @ 37° C. A first portion of the cells was then treated with RNAse to remove any of the clone remaining bound to the surface of the cells, so as to allow detection and quantitation of internalized clone (i.e., measuring internalization). In parallel, a second portion of the cells was treated with PBS containing 0.5% BSA (lacking added RNase activity to enzymatically cleave […]), so as to allow detection and quantitation of clone remaining bound to the cell surface, as well as internalized clone (i.e., measuring binding and internalization). Following further washes with phosphate-buffered saline, the cells were fixed in 1% formaldehyde and then subjected to analysis on a flow cytometer using commercially available analysis software. In performing analyses by flow cytometry, several assay controls were used. As an assay control representing either no or background (e.g., non-specific) internalization, an RNA molecule resulting from a selection process for binding a molecule not detectably expressed on target cells was used. The assay control RNA molecule was further modified with Alexa 647, and then used for further characterization of clones from the selection process described herein. For ease of description and reference for this Example, this assay control RNA molecule is referred to herein as Negative Control 1 (see, e.g., Table 5). As an additional assay control that represents either no or background internalization, used was an RNA molecule from the starting library which was chosen from the library prior to beginning a selection method described herein, and that was further modified with Alexa 647. This assay control RNA molecule is referred to herein as Negative Control 2 (see, e.g., Tables 5, 7, and 8). Additionally, fluorescence of unstained cells was measured, as a control, to quantitate any background fluorescent properties of the cells themselves as encountered in analyses by flow cytometry (“Unstained”), as opposed to fluorescent signal mediated by the RNA molecules further modified to include Alexa 647. Shown in Table 5 are the results of analyses by flow cytometry in which measured and quantitated was the ability of clones, selected on the basis of sequence convergence, to internalize into target cells represented by human prostate cancer cell line PC-3. The units of fluorescence in Table 5 represent mean fluorescence (“Mean”). The fold increase (determined by dividing the mean fluorescence of a clone by the mean fluorescence of unstained cells) is an indicator of the ability of a clone, or a clone which has been further modified to include an effector moiety, to internalize into the target cells (Table 5; “Fold Increase”).
The truncations, illustrated in Table 6, were each further modified with a detectable moiety, Alexa 647, and analyzed by a flow cytometric-based screening assay for internalization using the methods outlined in Example 2, to determine minimal sequences that maintain the full ability to internalize into human prostate cancer cells. Shown in Table 7 are the results of analyses by flow cytometry in which measured and quantitated was the ability of each truncation to internalize into target cells represented by human prostate cancer cell line PC-3. The units of fluorescence in Table 7 represent mean fluorescence intensity (“Mean”). […]

[2] = test system: human primary mammary epithelial cells; test: Flow cytometric binding and internalization assay, mammary epithelial cells; type: cell-based; conditions: nonmalignant
Protocol: (§1) In illustrating a screening process for internalization, from clones selected for further analysis from the selection process, a flow cytometric-based assay for binding and/or internalization was utilized. Typically, the assay was performed by incubating 200 nM of each clone with 5×10^5 target cells in 100 ul PBS containing 0.5% bovine serum albumin (BSA) in a 13 mm tube for 2 hours @ 37° C. A first portion of the cells was then treated with RNAse to remove any of the clone remaining bound to the surface of the cells, so as to allow detection and quantitation of internalized clone (i.e., measuring internalization). In parallel, a second portion of the cells was treated with PBS containing 0.5% BSA (lacking added RNase activity to enzymatically cleave […]), so as to allow detection and quantitation of clone remaining bound to the cell surface, as well as internalized clone (i.e., measuring binding and internalization). […] Additionally, fluorescence of unstained cells was measured, as a control, to quantitate any background fluorescent properties of the cells themselves as encountered in analyses by flow cytometry (“Unstained”), as opposed to fluorescent signal mediated by the RNA molecules further modified to include Alexa 647. […] The units of fluorescence in Table 5 represent mean fluorescence (“Mean”). […]

[3] = test system: HS578T Human, triple negative, highly metastatic breast carcinoma; test: Flow cytometric binding and internalization assay, HS578T; type: cell-based; conditions: malignant
Protocol: as §1

[4] = test system: DU145 human prostate cancer, metastatic; test: Flow cytometric binding and internalization assay, DU145; type: cell-based; conditions: DU145, malignant
Protocol: as §1

[5] = test system: PBMC (unstim) human, unstimulated peripheral blood mononuclear cells; test: Flow cytometric binding and internalization assay, PBMC; type: cell-based; conditions: nonmalignant
Protocol: as §1

[6] = test system: T47D human ductal breast epithelial tumor cell line; test: Flow cytometric binding and internalization assay, T47D; type: cell-based; conditions: malignant
Protocol: as §1

[7] = test system: A431 human epidermoid carcinoma; test: Flow cytometric binding and internalization assay, A431; type: cell-based; conditions: A431, malignant
Protocol: as §1

[8] = test system: SKBR3 human breast adenocarcinoma; test: Flow cytometric binding and internalization assay, SKBR3; type: cell-based; conditions: SKBR3, malignant
Protocol: as §1

[9] = test system: HCC1937 human, triple negative, primary breast carcinoma; test: Flow cytometric binding and internalization assay, HCC1937; type: cell-based; conditions: HCC1937, malignant
Protocol: as §1

[10] = test system: HCC1143 human, triple negative, breast carcinoma; test: Flow cytometric binding and internalization assay, HCC1143; type: cell-based; conditions: HCC1143, malignant
Protocol: as §1

[11] = test system: MCF7 human breast adenocarcinoma; test: Flow cytometric binding and internalization assay, MCF7; type: cell-based; conditions: MCF7, malignant
Protocol: as §1

[12] = test system: 22Rv1 Human prostate xenografts in mice; test: Flow cytometric binding and internalization assay, 22Rv1; type: cell-based; conditions: 22Rv1, malignant
Protocol: as §1

[13] = test system: K562 human chronic myelogenous leukemia; test: Flow cytometric binding and internalization assay, K562; type: cell-based; conditions: K562, malignant
Protocol: as §1

[14] = test system: PrEC human primary prostate epithelial cells; test: Flow cytometric binding and internalization assay, PrEC; type: cell-based; conditions: nonmalignant
Protocol: as §1

[15] = test system: LNCaP lymph node metastatic lesion of human prostate adenocarcinoma; test: Flow cytometric binding and internalization assay, LNCaP; type: cell-based; conditions: malignant
Protocol: as §1

[16] = test system: WIL-2 B lymphoblastoid cell line transformed with Epstein Barr virus; test: Flow cytometric binding and internalization assay, WIL-2; type: cell-based, human; conditions: WIL-2, transformed cells
Protocol: as §1

[17] = test system: A549 human lung adenocarcinoma; test: Flow cytometric binding and internalization assay, A549; type: cell-based; conditions: A549, malignant
Protocol: as §1

[18] = Table 7, truncations modified with Alexa 647, PC-3
[19] = Table 8, mutants of E3-45, PC-3

Row | Molecule | Fold increase (mean fluorescence intensity / unstained cells) [1, 18] | Mean (mean fluorescence intensity) [1, 18] | internalization into cells (conclusion from Table 5) ([1]; PC-3, in words) | Fold Increase (mean fluorescence of clone / unstained cells) [1] | Mean (mean fluorescence) [1] | Fold increase [1] | Fold increase [11] | Fold increase [13] | Fold increase [14] | Fold increase [16] | Fold increase [17] | also measured
1 | GGGAGGCUUUCGGGCUUUCGGCAACAUCAGCC (rGrGrGrArGrGfCfUfUfUfCrGrGrGfCfUfUfUfCrGrGfCrArAfCrAfUfCrArGfCfC; aptamer; Alexa 647 label attached, position not given here, further chemistry not fully specified) [E3-32, truncation of iNA E3, 32 bases] | 11.8 | 944 |  |  |  |  |  |  |  |  |  | 
2 | mutant 4: mutant of E3-45 with the conserved motif UUUCGG mutated in a loop portion (GGGUGCGGUACUUUCGGGCUUUCAAAAACAUCAGCCCCUCAGGACG; aptamer; listed as RNA, chemistry not fully specified) |  |  |  |  |  |  |  |  |  |  |  | ability to bind and internalize as compared to wildtype iNA (E3-45) ([1]; PC-3, in words): loss of the ability to bind and internalize; Fold increase (mean fluorescence intensity / unstained cells) [1, 19]: 2.0; Mean (mean fluorescence intensity) [1, 19]: 176
3 | B1 | 11.3 | 907 | mediate internalization into cells | 8.3 | 665 | 9.4 | 31.0 | 23.2 | 2.6 | 20.6 | 3.7 | Fold increase [2]: 5.7; Fold increase [3]: 9.8; Fold increase [4]: 6.1; Fold increase [5]: 2.4; Fold increase [6]: 25.8; Fold increase [7]: 6.9; Fold increase [8]: 14.3; Fold increase [9]: 11.8; Fold increase [10]: 2.1; Fold increase [12]: 14.8; Fold increase [15]: 6.1
4 | B2 | 10.7 | 858 |  |  |  |  |  |  |  |  |  | 
5 | B3 |  |  | mediate internalization into cells | 5.8 | 460 | 5.8 | 11.7 | 19.0 | 2.7 | 11.4 | 3.2 | 
